Results: paper PMC3123459

Molecular target: Acyl-CoA dehydrogenase from Mycobacterium thermoresistibile (Mycobacterium thermoresistibile)
Assay: crystal structure

Which stoichiometry N does the source give for “Acyl-CoA dehydrogenase from Mycobacterium thermoresistibile (enzyme)” here?
Its stoichiometry N is 4.
